These results are taken from patent US20200157198A1 (POPULAS BIOPHARMACEUTICAL WUHAN, published 2020).

For test [1], the target named is polypeptide C8079BB030-1 (…). The test is described as follows: indirect ELISA on coated peptide (1 ug/ml); unimmunized serum 1:1,000; column No. 1954. For orientation: In an ELISA, binding on a coated surface is turned into a signal by an enzyme label.
In test [2] the target is polypeptide C8079BB030-1 (…). The test is described as follows: indirect ELISA on coated peptide (1 ug/ml); unimmunized serum 1:1,000; column No. 1955.
The target in test [3] is polypeptide C8079BB030-1 (…). The test is described as follows: indirect ELISA on coated peptide (1 ug/ml); unimmunized serum 1:1,000; column No. 1956.
For test [4], the target named is polypeptide C8079BB030-1 (…). The test is described as follows: indirect ELISA on coated peptide (1 ug/ml); unimmunized serum 1:1,000; column No. 1957.
Test [5] deals with polypeptide C8079BB030-1 (…). Briefly: indirect ELISA on coated peptide (1 ug/ml); unimmunized serum 1:1,000; column No. 1958.
Test [6] has as its target T1, HA-tagged human Nav1.9 expressed in ND7/23 cells (human, UniProt Q9UI33 1-1791, limits assumed).
T1 construct: Assayed as SDS-PAGE-separated lysate of transfected ND7/23 cells (Western blot); also called HA-hNav1.9; human Nav1.9-HA; not shown: HA tag
The test is described as follows: Western blot of lysate of ND7/23 cells transfected with HA-hNav1.9; antibody 1:300. Here is the method:
4. The cell lysate was centrifuged at 12000 rpm for 10 minutes at 4° C. to collect the cell lysis supernatant.
6. After […], the cells were incubated with HA tag (1:2000) antibody and 5A2F9-4 (1:300) antibody for 1 hour at room temperature.
8. A digoxigenin-labeled anti-mouse antibody (1:20000) was added and incubated for 1 hour at room temperature;

T1 sequence (Q9UI33 whole entry): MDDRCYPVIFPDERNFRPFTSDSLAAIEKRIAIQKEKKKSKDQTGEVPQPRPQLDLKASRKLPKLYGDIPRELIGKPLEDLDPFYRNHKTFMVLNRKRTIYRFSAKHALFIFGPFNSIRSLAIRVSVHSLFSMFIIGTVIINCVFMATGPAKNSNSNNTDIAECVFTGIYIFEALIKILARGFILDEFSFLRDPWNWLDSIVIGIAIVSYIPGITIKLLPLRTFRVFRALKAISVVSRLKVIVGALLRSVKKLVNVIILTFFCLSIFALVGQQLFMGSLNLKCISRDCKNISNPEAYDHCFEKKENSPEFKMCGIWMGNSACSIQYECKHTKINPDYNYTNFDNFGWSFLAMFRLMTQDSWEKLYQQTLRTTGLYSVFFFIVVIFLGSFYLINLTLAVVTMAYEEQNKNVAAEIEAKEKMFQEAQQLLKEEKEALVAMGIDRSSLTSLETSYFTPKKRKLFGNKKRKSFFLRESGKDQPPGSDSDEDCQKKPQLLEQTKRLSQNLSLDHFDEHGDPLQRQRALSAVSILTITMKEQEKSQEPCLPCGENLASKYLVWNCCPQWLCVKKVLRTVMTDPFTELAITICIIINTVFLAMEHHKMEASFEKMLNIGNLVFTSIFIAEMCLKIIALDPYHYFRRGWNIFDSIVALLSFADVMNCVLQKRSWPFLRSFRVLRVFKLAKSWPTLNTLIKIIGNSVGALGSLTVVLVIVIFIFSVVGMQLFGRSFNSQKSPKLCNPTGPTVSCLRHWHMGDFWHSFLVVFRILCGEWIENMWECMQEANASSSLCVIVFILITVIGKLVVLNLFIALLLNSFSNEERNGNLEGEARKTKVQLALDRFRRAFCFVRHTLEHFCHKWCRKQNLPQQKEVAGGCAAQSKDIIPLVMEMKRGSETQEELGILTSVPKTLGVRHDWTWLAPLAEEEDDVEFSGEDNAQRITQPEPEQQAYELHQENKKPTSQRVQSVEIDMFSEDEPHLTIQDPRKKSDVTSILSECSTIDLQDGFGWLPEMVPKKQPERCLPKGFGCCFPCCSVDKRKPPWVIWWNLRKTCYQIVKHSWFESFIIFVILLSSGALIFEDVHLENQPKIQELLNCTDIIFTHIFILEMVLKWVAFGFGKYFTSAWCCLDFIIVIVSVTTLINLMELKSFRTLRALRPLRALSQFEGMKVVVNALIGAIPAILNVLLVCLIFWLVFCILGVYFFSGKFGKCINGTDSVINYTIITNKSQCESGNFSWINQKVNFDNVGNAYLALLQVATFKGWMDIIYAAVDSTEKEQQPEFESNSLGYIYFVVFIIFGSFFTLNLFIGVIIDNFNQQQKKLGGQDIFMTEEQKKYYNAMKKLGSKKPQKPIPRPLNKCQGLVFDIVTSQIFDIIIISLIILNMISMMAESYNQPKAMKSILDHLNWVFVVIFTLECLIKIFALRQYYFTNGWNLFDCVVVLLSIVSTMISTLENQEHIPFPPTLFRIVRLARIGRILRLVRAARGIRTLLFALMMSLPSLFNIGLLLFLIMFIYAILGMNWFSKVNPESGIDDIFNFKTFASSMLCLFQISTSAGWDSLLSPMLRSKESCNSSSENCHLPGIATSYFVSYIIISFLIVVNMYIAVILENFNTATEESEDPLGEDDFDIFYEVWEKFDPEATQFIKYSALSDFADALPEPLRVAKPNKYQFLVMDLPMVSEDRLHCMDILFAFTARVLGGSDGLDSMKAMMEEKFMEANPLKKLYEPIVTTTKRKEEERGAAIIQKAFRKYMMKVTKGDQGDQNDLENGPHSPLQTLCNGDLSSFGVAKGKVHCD

As to negative control of unimmunized serum, the OD value (450 nm) in test [1] is 0.072 OD450; in test [2] it was 0.066 OD450; in test [3], 0.086 OD450; in test [4], 0.088 OD450; in test [5], 0.104 OD450.

B1: 5A2F9-4 antibody (antibody, V domains shown)
VH: QVQLQQPGAELVKPGASVKLSCKASGYTFTSYWMHWVKQRPGQGLEWIGEINPRNGRINQNEKFKSKATLTVAKSSSTAYMQLSSLTSEDSAVYYCSRGGGSSAEGGYWGQGTTLTVSS
VL: DVLMTQTPLSLPVSLGDQASISCRSSQSIVHSNGNTYLDWYLQKPGQSPKLLIYKVFNRLSGVPDRFSGSGSGTDFTLKISRVEAEDLGVYYCFQGSHVPLTFGAGTKLELQ
notes: Mouse hybridoma monoclonal antibody
As to B1, in test [6], the binding result is listed as “binds”.
